Data taken from patent US20240182988.

Biological target: TtCsm complex (Thermus thermophilus) (UniProt Q53W19+Q53WF6+Q53WF5+Q53WF4+Q53W18)
Assay: cleavage_in_vitro

“crRNA targeting SARS-CoV-2 N gene (N1) ; SARS-CoV-2 N1 target RNA” showed an activity greater than 95 % cleaved.
